One may read the Kd as the equilibrium constant for the complex coming apart.

Experiment [1] concerns the target T1, recombinant human RSPO2 (human, UniProt Q6UXX9 22-243).
T1 construct: R-spondin 2, human, recombinant protein; source: bought: Peprotech 120-43
In words: solid-phase in vitro binding assay (AP fusion read-out); Scatchard plot; RSPO2 recombinant protein (Peprotech 120-43) and BMPR1A^ECD-AP. The note with it: one partner purified.

Another experiment has as its target T2, recombinant human RSPO3 (human, UniProt Q9BXY4 22-272).
T2 construct: R-spondin 3, human, recombinant protein; source: bought: Peprotech 120-44
T2 sequence (looked up): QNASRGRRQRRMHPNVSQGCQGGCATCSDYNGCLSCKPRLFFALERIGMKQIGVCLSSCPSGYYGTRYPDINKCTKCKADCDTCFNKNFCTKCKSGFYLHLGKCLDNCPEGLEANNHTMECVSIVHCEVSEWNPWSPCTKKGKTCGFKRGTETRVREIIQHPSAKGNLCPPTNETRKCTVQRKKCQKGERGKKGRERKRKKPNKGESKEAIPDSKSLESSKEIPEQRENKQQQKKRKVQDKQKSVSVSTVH
In words: solid-phase in vitro binding assay (AP fusion read-out); ternary complex: recombinant RSPO protein on plate-coated ZNRF3 Fc chimera (4-6 h), read out through BMPR1A^ECD-AP. The note with it: both partners purified.

Experiment [2] has as its target T1, recombinant human RSPO2. The experiment is described as above. The note with it: both partners purified.

T1 sequence (Q6UXX9 22-243): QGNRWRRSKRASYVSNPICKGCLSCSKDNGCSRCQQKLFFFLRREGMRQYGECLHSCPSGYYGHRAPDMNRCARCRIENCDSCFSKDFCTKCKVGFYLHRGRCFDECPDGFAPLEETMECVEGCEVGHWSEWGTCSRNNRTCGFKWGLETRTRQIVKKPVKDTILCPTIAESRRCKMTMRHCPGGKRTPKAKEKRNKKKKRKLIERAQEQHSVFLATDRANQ

B1: BMPR1A^ECD-AP (domain or fragment, human, UniProt P36894 24-152, looked up)
chain: QNLDSMLHGTGMKSDSDQKKSENGVTLAPEDTLPFLKCYCSGHCPDDAINNTCITNGHCFAIIEEDDQGETTLASGCMKYEGSDFQCKDSPKAQLRRTIECCRTNLCNQYLQPTLPPVVIGPFFDGSIR
notes: Extracellular domain of BMPR1A/ALK3; also called extracellular domain of BMPR1A; source: HEK293T, transiently transfected, conditioned medium
With B1, the Kd with recombinant human RSPO2 [1] is roughly 4.8 nM.

B2: recombinant human ZNRF3 Fc Chimera protein (Fc fusion, UniProt Q9ULT6 56-219, looked up)
chain: KETAFVEVVLFESSPSGDYTTYTTGLTGRFSRAGATLSAEGEIVQMHPLGLCNNNDEEDLYEYGWVGVVKLEQPELDPKPCLTVLGKAKRAVQRGATAVIFDVSENPEAIDQLNQGSEDPLKRPVVYVKGADAIKLMNIVNKQKVARARIQHRPPRQPTEYFDM
notes: Zinc and ring finger 3 (ZNRF3), human, as Fc chimera; source: bought: R&D systems 7994-RF
For B2, the binding result with recombinant human RSPO3 and with recombinant human RSPO2 [2] was “binds” in each case.

Values taken from publication PMC7642414, “R-spondins are BMP receptor antagonists in Xenopus early embryonic development” (Nature Communications, 2020).
